Laboratory results taken from publication PMC6698653.

T1: MmLARK (Mus musculus, UniProt Q8C7Q4 1-361)
T1 sequence: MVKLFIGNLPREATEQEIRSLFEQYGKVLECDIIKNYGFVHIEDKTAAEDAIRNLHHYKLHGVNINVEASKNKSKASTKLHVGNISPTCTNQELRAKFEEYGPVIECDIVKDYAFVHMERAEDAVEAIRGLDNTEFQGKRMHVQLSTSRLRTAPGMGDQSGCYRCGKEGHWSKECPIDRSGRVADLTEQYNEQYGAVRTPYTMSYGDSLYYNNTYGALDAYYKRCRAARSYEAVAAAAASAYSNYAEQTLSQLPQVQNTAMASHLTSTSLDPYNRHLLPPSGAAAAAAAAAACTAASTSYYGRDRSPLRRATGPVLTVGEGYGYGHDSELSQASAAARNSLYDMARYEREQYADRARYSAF


Key:
HsLARK = HsLARK (Homo sapiens, UniProt Q9BWF3 1-364); assay: EMSA
MmLARK = target: T1, MmLARK; assay: EMSA
BmLARK ZnF = BmLARK ZnF (Bombyx mori, UniProt Q5I7M6 155-343); assay: EMSA
DmLARK = DmLARK (Drosophila melanogaster, UniProt Q94901 1-352); assay: EMSA
Sequence of DmLARK (Q94901 whole entry): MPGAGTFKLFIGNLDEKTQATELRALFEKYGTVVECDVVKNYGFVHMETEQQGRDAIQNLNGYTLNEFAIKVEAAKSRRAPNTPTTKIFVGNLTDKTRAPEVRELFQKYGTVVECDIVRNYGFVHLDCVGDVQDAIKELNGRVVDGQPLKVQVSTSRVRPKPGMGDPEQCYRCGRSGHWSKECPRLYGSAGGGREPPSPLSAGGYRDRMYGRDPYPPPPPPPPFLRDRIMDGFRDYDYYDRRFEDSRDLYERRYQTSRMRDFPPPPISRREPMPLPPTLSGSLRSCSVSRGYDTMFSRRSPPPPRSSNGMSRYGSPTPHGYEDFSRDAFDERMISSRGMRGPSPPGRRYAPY

BmLARK [1] = target: T2, BmLARK (Bombyx mori (cDNA from Bm12 cells), UniProt Q5I7M6 1-343); assay: MST
BmLARK [2] = target: T2, BmLARK; assay: EMSA

Binder | Kd (BmLARK [1]) | binding result (BmLARK [2]) | also measured
CCAGTGCGGGGCGCGAGGGGGCCGAGGGGCGGGGCAACAA (structured_DNA) [BmPOUM2 G4] | 111 nM |  | binding result (HsLARK): binds; binding result (MmLARK): binds; binding result (BmLARK ZnF): no binding; binding result (DmLARK): binds
GGGTCGCGGGGCCACGGGGGGCGGGGCGGGGGCCGCG (structured_DNA) [142 G4] | 107 nM |  | 
CCAGTGCGATGCGCGAGTGAGCCGAGTAGCAGTGCAACAA (ssDNA) [BmPOUM2 ssDNA (mutant G4)] |  | no binding | 
TTATGGGGAGGGTGGGGAGGGTGGGGAAGG (structured_DNA) [c-MYC G4] | 269 nM |  | binding result (HsLARK): binds; binding result (MmLARK): binds
GTGTCGCAGTGCCACAGTGTGCTGAGCAGTGTCCGCG (ssDNA) [142 ssDNA (mutant G4)] |  | no binding | 
GGTACGGGGGTGCAGGGGCGGCGGGGGGCGCGGGGTGG (structured_DNA) [558 G4] | 120 nM |  | 
GGCGGGGGCGGGGGGACGGGGCGGGGGGGGCGG (structured_DNA) [159 G4] | 114 nM |  | 
GGTACTGTGATGCAAGTGCGGCAGTGAGCGCAGTGTGG (ssDNA) [558 ssDNA (mutant G4)] |  | no binding | 
GGCAGTGTCAGTGAGACAGAGCAGTGTGTGCGG (ssDNA) [159 ssDNA (mutant G4)] |  | no binding | 
TTTTTCGGGCGGGCGCGAGGGAGGGG (structured_DNA) [c-kit G4] | 126 nM |  | binding result (HsLARK): binds; binding result (MmLARK): binds
GCGAGGGCGGGGGAGAGGGGAGGGGCGCG (structured_DNA) [HIF-1a G4] | 131 nM |  | 
